The results in this text go back to patent publication US20220098305A1 (Hoffmann-La Roche, published 2022).

Positions count from the first letter of the chain named. In names and notes the source's numbering stands. Like-named read-outs stand apart in the source and are kept apart here.

The EC50 is the midpoint of the concentration-response curve. Low values mean a more potent agent, high ones a less potent agent. The term EC50 (read off the curve) denotes the concentration at which the effect is half-maximal.

For experiment [1], the target named is T1, human FAP (human, UniProt Q12884 1-760).
T1 construct: also called hu FAP
Kind of experiment: flow cytometry, NIH/3T3-huFAP clone 19 cells. The protocol:
(§1) Briefly, suspension cells were harvested, counted, checked for viability and re-suspended at 1 million cells per ml in FACS buffer (PBS with 0.1% BSA). […] The staining was fixed for 20 min at 4° C. in the dark, using 75 μl of 1% PFA in FACS buffer per well.
(§2) Fluorescence was analyzed by FACS using a FACS Fortessa (Software FACS Diva). Binding curves and EC₅₀ values were obtained using GraphPadPrism 7.
(In general: In flow cytometry, cells or beads pass a laser one at a time.)

The target of experiment [2] is T1, human FAP. Kind of experiment: flow cytometry, NIH/3T3-huFAP clone 19 cells. The source holds these as a separate data set.
For experiment [3], the target named is T2, human ICOS (human, UniProt Q9Y6W8 21-199).
T2 construct: The cell that carries it is named under assay; also called huICOS; CD278
T2 sequence: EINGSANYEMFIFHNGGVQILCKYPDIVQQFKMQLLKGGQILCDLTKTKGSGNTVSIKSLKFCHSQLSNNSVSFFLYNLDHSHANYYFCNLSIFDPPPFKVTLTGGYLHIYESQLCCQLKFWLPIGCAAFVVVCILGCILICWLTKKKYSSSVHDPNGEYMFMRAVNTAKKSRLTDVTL
As to the kind of experiment: flow cytometry, CHO cells expressing human ICOS. The protocol: as §1, §2

Experiment [4] deals with T3, murine FAP (murine, UniProt P97321 26-761, limits assumed).
T3 construct: also called mouse FAP
Kind of experiment: flow cytometry, cells carrying murine FAP not told.

Experiment [5] addresses T2, human ICOS. Kind of experiment: flow cytometry, pre-activated human PBMCs, CD4+ subset. The method, then: as §1
(§3) Briefly, Peripheral blood mononuclear cells (PBMCs) were prepared by Histopaque (Sigma-Aldrich, Cat No. 10771-500ML Histopaque-1077) density centrifugation of enriched lymphocyte preparations of heparinized blood obtained from a Buffy Coat (“Blutspende Zürich”). The blood was diluted 1:2 with sterile DPBS and layered over Histopaque gradient (Sigma, #H8889). After centrifugation (450×g, 30 minutes, room temperature), the plasma above the PBMC-containing interphase was discarded and PBMCs transferred in a new falcon tube subsequently filled with 50 ml of PBS. The mixture was centrifuged (400×g, 10 minutes, room temperature), the supernatant discarded and the PBMC pellet washed twice with sterile PBS (centrifugation steps 350×g, 10 minutes). The resulting PBMC population was counted automatically (Cedex HiRes) and stored in RPMI1640 medium containing 10% FCS and 1% Glutamax (Gibco 35050061). […] After incubation the PBMCs were used for a subsequent binding experiment, as described above.

The target of experiment [6] is T2, human ICOS. As to the kind of experiment: flow cytometry, pre-activated human PBMCs, CD8+ subset. The method, then:
as §1, §3

The target of experiment [7] is T1, human FAP. As to the kind of experiment: flow cytometry on NIH/3T3-huFAP clone 19 cells, MFI on single cells. The protocol:
as §1

Experiment [8] deals with T3, murine FAP. As to the kind of experiment: flow cytometry, % positive cells; cells bearing murine FAP not given.
Experiment [9] addresses T4, cynomolgus ICOS (cynomolgus, UniProt Q9Y6W8 21-195 (human entry)).
T4 chain: T2 sequence with T54K, H81R, A129T, L136F, S152T, D176G, V177T, L179P
Kind of experiment: flow cytometry on cynomolgus PBMCs activated 48 h with CD3/CD28 beads, CD4+ subset, MFI.

Experiment [10] deals with T1, human FAP. As to the kind of experiment: flow cytometry on NIH/3T3-huFAP clone 19 cells, AF647-labelled anti-human Fc secondary antibody, MFI. The protocol:
as §1, §2

Experiment [11] addresses T5, murine ICOS (murine, UniProt Q9WVS0 21-200).
T5 sequence: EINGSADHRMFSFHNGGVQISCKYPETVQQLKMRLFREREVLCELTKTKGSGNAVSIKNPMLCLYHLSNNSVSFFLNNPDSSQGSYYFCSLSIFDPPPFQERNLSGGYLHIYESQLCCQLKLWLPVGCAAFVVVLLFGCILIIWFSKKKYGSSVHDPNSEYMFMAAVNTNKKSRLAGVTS
Kind of experiment: flow cytometry, % positive cells; murine ICOS on recombinant CHO cells according to the legend, on pre-activated murine splenocytes according to the example.

Experiment [12] concerns the target T2, human ICOS. Kind of experiment: flow cytometry, SR cells.
The target of experiment [13] is T1, human FAP. Kind of experiment: flow cytometry, NIH/3T3-huFAP clone 19 cells. This is another data set of the same source.
Experiment [14] has as its target T1, human FAP. Kind of experiment: flow cytometry on NIH/3T3-huFAP clone 19 cells, geometric MFI.
Experiment [15] deals with T2, human ICOS. Kind of experiment: flow cytometry on SR cells expressing human ICOS, geometric MFI.

B1: Molecule 10, bispecific monovalent anti-ICOS (1167)/anti-FAP (4B9) huIgG1 P329GLALA kih antibody (1+1) (bispecific antibody)
heavy 1: EIVLTQSPGTLSLSPGERATLSCRASQSVTSSYLAWYQQKPGQAPRLLINVGSRRATGIPDRFSGSGSGTDFTLTISRLEPEDFAVYYCQQGIMLPPTFGQGTKVEIKSSASTKGPSVFPLAPSSKSTSGGTAALGCLVKDYFPEPVTVSWNSGALTSGVHTFPAVLQSSGLYSLSSVVTVPSSSLGTQTYICNVNHKPSNTKVDKKVEPKSCDKTHTCPPCPAPEAAGGPSVFLFPPKPKDTLMISRTPEVTCVVVDVSHEDPEVKFNWYVDGVEVHNAKTKPREEQYNSTYRVVSVLTVLHQDWLNGKEYKCKVSNKALGAPIEKTISKAKGQPREPQVCTLPPSRDELTKNQVSLSCAVKGFYPSDIAVEWESNGQPENNYKTTPPVLDSDGSFFLVSKLTVDKSRWQQGNVFSCSVMHEALHNHYTQKSLSLSP
light 1: EVQLLESGGGLVQPGGSLRLSCAASGFTFSSYAMSWVRQAPGKGLEWVSAIIGSGASTYYADSVKGRFTISRDNSKNTLYLQMNSLRAEDTAVYYCAKGWFGGFNYWGQGTLVTVSSASVAAPSVFIFPPSDEQLKSGTASVVCLLNNFYPREAKVQWKVDNALQSGNSQESVTEQDSKDSTYSLSSTLTLSKADYEKHKVYACEVTHQGLSSPVTKSFNRGEC
heavy 2: not shown
light 2: DIQMTQSPSSVSASVGDRVTITCRASQGINNFLAWYQQKPGKAPKLLIYDASSLQSGVPSRFAGSGSGTDFTLTISSLQPEDFATYYCQQYNFYPLTFGGGTMVEIKRTVAAPSVFIFPPSDRKLKSGTASVVCLLNNFYPREAKVQWKVDNALQSGNSQESVTEQDSKDSTYSLSSTLTLSKADYEKHKVYACEVTHQGLSSPVTKSFNRGEC
notes: CrossFab (VLCH1/VHCL) on the FAP arm; also called FAP-ICOS (1+1)
In the case of B1, the half-maximal effective concentration (EC50) in [1] is 1.4 nM; in [2] it was 1.54 nM; in experiment [3], 41.7 nM; in [4], 0.177 nM; in experiment [5], approximately 58 nM; in experiment [6], approximately 124 nM. Besides, the “EC50 (read off the curve)” value was approximately 2 nM in [7], approximately 0.2 nM in [8] and approximately 1 nM in [10]. Besides, the binding result in [9] and in experiment [11] was “binds” in each case.

B2: Molecule 12, bispecific 2+1 anti-ICOS (1167)/anti-FAP (4B9) Crossfab-IgG P329G LALA (bispecific antibody)
heavy 1: EVRLLESGGGLVQPGGSLRLSCAASGFTFNTYAVHWVRQAPGKGLEWVSGIGGSGVRTYYADSVKGRLTISRDNSKNTLYLQMNSLRAEDTAIYFCAKDIYVADFTGYAFDIWGQGTMVTVSSASTKGPSVFPLAPSSKSTSGGTAALGCLVEDYFPEPVTVSWNSGALTSGVHTFPAVLQSSGLYSLSSVVTVPSSSLGTQTYICNVNHKPSNTKVDEKVEPKSCDKTHTCPPCPAPEAAGGPSVFLFPPKPKDTLMISRTPEVTCVVVDVSHEDPEVKFNWYVDGVEVHNAKTKPREEQYNSTYRVVSVLTVLHQDWLNGKEYKCKVSNKALGAPIEKTISKAKGQPREPQVCTLPPSRDELTKNQVSLSCAVKGFYPSDIAVEWESNGQPENNYKTTPPVLDSDGSFFLVSKLTVDKSRWQQGNVFSCSVMHEALHNHYTQKSLSLSP
light 1: B1 light 2
heavy 2: not shown
light 2: B1 light 1
For B2, the results for the concentration giving a half-maximal response (EC50) in experiment [2], in experiment [5] and in [6] were 1.82 nM, approximately 12.6 nM and approximately 12.6 nM, respectively. In addition, the “EC50 (read off the curve)” value in experiment [7] is approximately 2 nM.

B3: Molecule 11, bispecific 1+1 head-to-tail anti-ICOS (1167)/anti-FAP (4B9) huIgG1 P329GLALA kih antibody (bispecific antibody)
heavy 1: DKTHTCPPCPAPEAAGGPSVFLFPPKPKDTLMISRTPEVTCVVVDVSHEDPEVKFNWYVDGVEVHNAKTKPREEQYNSTYRVVSVLTVLHQDWLNGKEYKCKVSNKALGAPIEKTISKAKGQPREPQVCTLPPSRDELTKNQVSLSCAVKGFYPSDIAVEWESNGQPENNYKTTPPVLDSDGSFFLVSKLTVDKSRWQQGNVFSCSVMHEALHNHYTQKSLSLSPGGGGGSGGGGSGGGGSGGGGSEIVLTQSPGTLSLSPGERATLSCRASQSVTSSYLAWYQQKPGQAPRLLINVGSRRATGIPDRFSGSGSGTDFTLTISRLEPEDFAVYYCQQGIMLPPTFGQGTKVEIK
heavy 2: not shown
light: B1 light 2
notes: names and VH/VL of 4B9 are swapped; also called 1+1_HT; FAP-ICOS (HT)
In the case of B3, the results for the EC50 in experiment [1], in [3] and in [4] were 1.15 nM, 4.17 nM and 0.413 nM, respectively. Besides, the “EC50 (read off the curve)” value was approximately 0.4 nM in experiment [8] and approximately 1 nM in experiment [10]. For the same molecule, the binding result in experiment [9] and in [11] was “binds” in each case.

B4: Molecule 40, bispecific 2+1 anti-ICOS (009)/anti-FAP (4B9) huIgG1 P329GLALA kih (bispecific antibody)
heavy 1: EVRLDETGGGVVQPGRPMELSCVASGFTFSDYWMNWVRQSPEKGLEWVAQIRNKPYNYETYYSDSVKGRFTISRDDSKSRVYLQMNNLRAEDMGIYYCTWPRLRSSDWHFDVWGAGTTVTVSSASTKGPSVFPLAPSSKSTSGGTAALGCLVKDYFPEPVTVSWNSGALTSGVHTFPAVLQSSGLYSLSSVVTVPSSSLGTQTYICNVNHKPSNTKVDKKVEPKSCDKTHTCPPCPAPEAAGGPSVFLFPPKPKDTLMISRTPEVTCVVVDVSHEDPEVKFNWYVDGVEVHNAKTKPREEQYNSTYRVVSVLTVLHQDWLNGKEYKCKVSNKALGAPIEKTISKAKGQPREPQVCTLPPSRDELTKNQVSLSCAVKGFYPSDIAVEWESNGQPENNYKTTPPVLDSDGSFFLVSKLTVDKSRWQQGNVFSCSVMHEALHNHYTQKSLSLSPGGGGGSGGGGSGGGGSGGGGSEIVLTQSPGTLSLSPGERATLSCRASQSVTSSYLAWYQQKPGQAPRLLINVGSRRATGIPDRFSGSGSGTDFTLTISRLEPEDFAVYYCQQGIMLPPTFGQGTKVEIK
heavy 2: not shown
light: AIQMTQSPSSLSASLGGEVTITCKASQDINKNIAWYQHKPGRGPRLLIWYTSTLQTGIPSRFSGSGSGRDYSFTISNLEPEDFATYYCLQFDNLYTFGSGTKLEIRRTVAAPSVFIFPPSDEQLKSGTASVVCLLNNFYPREAKVQWKVDNALQSGNSQESVTEQDSKDSTYSLSSTLTLSKADYEKHKVYACEVTHQGLSSPVTKSFNRGEC
For B4, the EC50 in [12] is 0.00174 nM; in experiment [13], 0.00385 nM. Further, the “EC50 (read off the curve)” value is approximately 4 nM in experiment [14] and approximately 2 nM in [15].
